The record followed here is patent US20230243070A1 (Molecular Partners, published 2023).

In assay [1] the target is T1, HBVc18pMHC, biotinylated recombinant complex (HLA-A*0201: HBVc18) (human; Hepatitis B virus).
T1 construct: also called HBVc18 peptide-MHC complex
The experiment in a line: SPR (ProteOn).

In assay [2] the target is NYESOAApMHC (HLA-A*0201:NYESO1-9VAA), biotinylated recombinant complex (human). The experiment in a line: SPR (ProteOn), biotinylated pMHC on NLC chip.
The target of assay [3] is EBNApMHC (HLA-A*0201:EBNA-1), biotinylated recombinant complex (human; Epstein Barr virus). The experiment in a line: SPR (ProteOn), biotinylated pMHC on NLC chip.
Assay [4] deals with T2, NYESOpMHC on T2 cells pulsed with NY-ESO-1-9V (157-165) peptide.
Assay [5] deals with T3, NYESOpMHC (HLA-A*0201:NYESO1-9V), biotinylated recombinant complex (human).
T3 construct: also called NY-ESO-1 peptide-MHC complex
The experiment in a line: SPR (ProteOn), biotinylated pMHC on NLC chip, PBS with Tween.

Assay [6] has as its target T2, NYESOpMHC on T2 cells pulsed with …. This is another data set of the same source.
Assay [7] deals with T4, MAGEA3pMHC, biotinylated recombinant complex (HLA-A*0101, MAGE-A3 peptide) (human).
T4 construct: also called MAGE-A3 peptide-MHC complex
The experiment in a line: ribosome display selection, crude extract HTRF. In general terms: Time-resolved FRET reads energy transfer from a long-lived donor to a nearby acceptor.

B1: DARPin® protein comprising SEQ ID NO 222 (linked to a CD3-specific binding agent) (designed binder)
chain: GSDLGYKLLTAAIVGQDDEVRILLAAGADVNAKDQSGLTPLHLAAAYGHLEIVEVLLKAGADVNAKDKHGRTPLHLAALEGHLEIVEVLLKAGADVNAQDQFGITPADLAAAVGHEDIAEVLQKAA
In general, Kd refers to the equilibrium constant for the complex coming apart. With B1, the dissociation constant Kd in assay [1] is 7.15 nM.

B2: DARPin® protein comprising SEQ ID NO 227 (linked to a CD3-specific binding agent) (designed binder)
chain: GSDLGQKLLTAAIVGQDDEVRILLAAGADVNAKDQSGLTPLHLAAAYGHLEIVEVLLKAGADVNAKDKHGRTPLHLAALEGHLEIVEVLLKAGADVNAQDQFGITPADLAAAVGHEDIAEVLQKAA
On to B2, for which the Kd in assay [1] was 7.1 nM.

B3: DARPin® protein #20 (designed binder)
chain: MRGSHHHHHHGSDLGKKLLQAARAGQLDEVRELLKAGADVNAKDQSGATPLHLAAFRGHLEIVEVLLKAGADVNAKDAAGYTPLHIAAVYGHLEIVEVLLKAGADVNAKDSAGETPLHLAAYAGHLEIVEVLLKAGADVNAQDKSGKTPADLAARAGHQDIAEVLQKAA
Usually EC50 stands for the concentration at which the effect is half-maximal. The low end stands for an effect from little substance, the high end for a need for much substance. B3: the binding result in assay [2] is recorded as “no binding”; in assay [3], “no binding (tested: 3.7 nM to 300 nM, or 250 nM single trace)”. This molecule showed a concentration giving a half-maximal response (EC50) in assay [4] of 20.6 nM. Also, the Kd in assay [5] turned out to be 5.79 nM.

B4: DARPin® protein #22 (designed binder)
chain: MRGSHHHHHHGSDLGKKLLQAARAGQLDEVRELLKAGADVNAKDAIGFTPLHLAAFSGHLEIVEVLLKAGADVNAKDVAGYTPLHVAALYGHLVIVEVLLKAGADVNAKDKAGETPLHLAAFAGHLEIVEVLLKAGADVNAQDKSGKTPADLAARAGHQDIAEVLQKAA
The term EC50 (read off the curve) denotes the concentration that produces a half-maximal response. Regarding B4, the “EC50 (read off the curve)” value in assay [6] was around 3 nM. Moreover, the binding result in assay [2] is “no binding”; in assay [3], “no binding (tested: 3.7 nM to 300 nM, or 250 nM single trace)”. It took 3.7 nM to reach a half-maximal effect in assay [4] (EC50). Moreover, the equilibrium dissociation constant (Kd) in assay [5] worked out at 0.0685 nM.

B5: SEQ ID NO 172 (designed binder)
chain: GSDLGKKLLQAARAGQLDEVRELLKAGADVNAKDEWGATPLHLAAYAGHLEIVEVLLKAGADVNAKDRWGLTPLHVAAVEGHLEIVEVLLKAGADVNAKDIEGETPLHIAAFTGHLEIVEVLLKAGADVNAQDKSGKTPADLAARAGHQDVAEVLQKAA
Take B5: the binding result in assay [7] is listed as “binds”.

B6: SEQ ID NO 157 (designed binder)
chain: GSDLGYKLLYAALFGQDDEVRILLAAGADVNAKDYFGKTPLHIAAYYGHLEIVEVLLKAGADVNAKDRYGITPLHLAALEGHLEIVEVLLKAGADVNAQDTDGITPADLAAWEGHEDIAEVLQKAA
Turning to B6, the binding result in assay [7] is on record as “binds”.

B7: SEQ ID NO 165 (designed binder)
chain: GSDLGEKLLQAALEGQDDEVRELLKAGADVNAKDLVGWTPLHIAAYRGHLEIVEVLLKAGADVNAKDWVGLTPLHLAAIEGHLEIVEVLLKAGADVNAQDREGKTPADLAALLGHEDIAEVLQKAA
For B7, the binding result in assay [7] is given as “binds”.

B8: SEQ ID NO 167 (designed binder)
chain: GSDLGKKLLQAARAGQLDEVRELLKAGADVNAKDSSGWTPLHLAAYTGHLEIVEVLLKAGADVNAKDQWGLTPLHLAALEGHLEIVEVLLKAGADVNAKDHTGKTPLHLAAQQGHLEIVEVLLKAGADVNAQDKSGKTPADLAARAGHQDIAEVLQKAA
With B8, the binding result in assay [7] was “binds”.

B9: DARPin® protein #27 (designed binder)
chain: MRGSHHHHHHGSDLGFKLLQAAHYGQDDEVRILLAAGADVNAKDEYGRTPLHHAALKGHLEIVEVLLKAGADVNAKDEFGTTPLHYAAIFGHLEIVEVLLKAGADVNAQDSSGFTPADLAALVGHEDIAEVLQKAA
As for B9, the binding result in assay [2] is listed as “no binding”; in assay [3], “no binding (tested: 3.7 nM to 300 nM, or 250 nM single trace)”. Besides, the Kd in assay [5] turned out to be 0.494 nM.

B10: DARPin® protein #26 (designed binder)
chain: MRGSHHHHHHGSDLGEKLLFAAFIGQDDEVRILLAAGADVNAKDEYGHTPLHAAAQHGHLEIVEVLLKAGADVNAKDQFGLTPLHIAAIFGHLEIVEVLLKAGADVNAQDHAGYTPADLAAWQGHEDIAEVLQKAA
Turning to B10, the binding result is given as “no binding” in assay [2] and “no binding (tested: 3.7 nM to 300 nM, or 250 nM single trace)” in assay [3]. For the same molecule, in assay [5], the dissociation constant (Kd) was 1.29 nM.

B11: SEQ ID NO 160 (designed binder)
chain: GSDLGKKLLQAAQAGQDDEVRELLKAGADVNAKDEWGRTPLHVAAYWGHLEIVEVLLKAGADVNAKDSFGLTPLHLAAIEGHLEIVEVLLKAGADVNAQDQQGATPADLAALLGHEDIAEVLQKAA
On to B11, for which the binding result in assay [7] is listed as “binds”.

B12: DARPin® protein #25 (designed binder)
chain: MRGSHHHHHHGSDLGNKLLSAAIRGQDDEVRILLAAGADVNAKDIHGHTPLHAAAQFGHLEIVEVLLKAGADVNAKDFYGLTPLHLAAIFGHLEIVEVLLKAGADVNAQDEEGKTPADLAAVIGHEDIAEVLQKAA
Consider B12, for which the binding result is “no binding” in assay [2] and “no binding (tested: 3.7 nM to 300 nM, or 250 nM single trace)” in assay [3]. Moreover, the equilibrium dissociation constant (Kd) in assay [5] is 0.172 nM.

B13: DARPin® protein comprising SEQ ID NO 221 (linked to a CD3-specific binding agent) (designed binder)
chain: GSDLGQKLLLAAAIGQDDEVRILLAAGADVNAKDESGHTPLHYAAHVGHLEIVEVLLKAGDVNAKDHRGFTPLHVAAQIGHLEIVEVLLKAGADVNAQDNWGITPADLAAWWGHEDIAEVLQKAA
B13: the dissociation constant (Kd) in assay [1] was found to be 0.369 nM.

B14: DARPin® protein comprising SEQ ID NO 226 (linked to a CD3-specific binding agent) (designed binder)
chain: GSDLGKKLLSAAQSGQDDEVRILLGAGADVNAKDKWGHTPLHLAAVKGHLEIAEVLLKAGADVNAKDEWGSTPLHLAASQGHLEIVEVLLKAGADVNAKDKKGATPLHLAALVGHLEIVEVLLKAVADVNAQDKSGKTPADLAARAGHQDIAEVLQKAA
As to B14, the Kd in assay [1] came out at 13.8 nM.

B15: DARPin® protein comprising SEQ ID NO 230 (linked to a CD3-specific binding agent) (designed binder)
chain: GSDLGKKLLQAARAGQLDEVHELLKAGADVNAKDQHGKTPMHLAAQIGHLEIVEVLLKAGADVNAKDHIGWTPLHLAASVGHLEIVEVLLKAGADVNAKDQEGWTPLHVAAQLGHLEIVEVLLKAGADVNAQDKSGKTPADLAARAGHQDSAEVLQKAA
On to B15, for which the Kd in assay [1] worked out at 9.33 nM.

B16: DARPin® protein comprising SEQ ID NO 225 (linked to a CD3-specific binding agent) (designed binder)
chain: GSDLGIKLLFAANFGQDDEVRILLAAGADVNAKDQSGRTPLHLAALWGHLEIVEVLLKAGADVNAKDVFGLTPLHIAATFGHLEIVEVLLKAGVDVNAQDYTGHTPADLAALIGHEDIAEVLQKAA
For B16, the equilibrium dissociation constant (Kd) in assay [1] turned out to be 9.23 nM.

B17: SEQ ID NO 169 (designed binder)
chain: GSDLGKKLLQAARAGQLDEVRELLKAGADVNAKDHWGKTPLHLAAYEGHLEIVEVLLKAGADVNAKDLFGLTPLHLAAIEGHLEIVEVLLKAGADVNAKDSFGYTPLHVAAQVGHLEIVEVLLKAGADVNAQDKSGKTPADLAARAGHQDIAEVLQKAA
Take B17: in assay [7], the binding result is given as “binds”.

B18: DARPin® protein #28 (designed binder)
chain: MRGSHHHHHHGSDLGQKLLKAAALGQDDEVRDLLKAGADVNAKDYQGQTPLHLAAWTGHLEIVEVLLKAGADVNAKDHFGYTPLHIAAHFGHLEIVEVLLKAGADVNAQDAAGQTPADLAAAEGHEDIAEVLQKAA
On to B18, for which the binding result in assay [2] is on record as “no binding”; in assay [3] it was “no binding (tested: 3.7 nM to 300 nM, or 250 nM single trace)”. In addition, the Kd in assay [5] turned out to be 2.57 nM.

B19: DARPin® protein comprising SEQ ID NO 220 (linked to a CD3-specific binding agent) (designed binder)
chain: GSDLGHKLLFAASAGQDDEVRILLAAGADVNAKDESGQTPLHYAAFVGHLEIVEVLLKAGADVNAKDQWGHTPLHVAATFGHLEIVEVLLKAGADVNAQDTWGTTPADLAATFGHEDIAEVLQKAA
As to B19, the dissociation constant Kd in assay [1] turned out to be 4.65 nM.

B20: DARPin® protein comprising SEQ ID NO 224 (linked to a CD3-specific binding agent) (designed binder)
chain: GSDLGFKLLEAALEGQDDEVRILLAAGADVNAKDESGQTPLHYAAFVGHLEIVEVLLKAGADVNAKDQWGHTPLHVAATFGHLEIVEVLLKAGADVNAQDTWGTTPADLAATFGHEDIAEVLQKAA
On to B20, for which the dissociation constant Kd in assay [1] was determined as 0.736 nM.

B21: DARPin® protein comprising SEQ ID NO 228 (linked to a CD3-specific binding agent) (designed binder)
chain: GSDLGWKLLHAATTGQDDEVRILLAAGADVNAKDESGQTPLHYAAFVGHLEIVEVLLKAGADVNAKDQWGHTPLHVAATFGHLEIVEVLLKAGADVNAQDTWGTTPADLAATFGHEDIAEVLQKAA
Regarding B21, the Kd in assay [1] amounted to 4.72 nM.

B22: DARPin® protein comprising SEQ ID NO 229 (linked to a CD3-specific binding agent) (designed binder)
chain: GSDLGSKLLYAAISGQDDEVRILLAAGADVNAKDESGQTPLHYAAFVGHLEIVEVLLKAGADVNAKDQWGHTPLHVAATFGHLEIVEVLLKAGADVNAQDTWGTTPADLAATFGHEDIAVVLQKAA
Take B22: in assay [1], the equilibrium dissociation constant (Kd) came to 1.03 nM.
